Results as given in article PMC10174300.

Molecular target: T cell immunoglobulin-3 (TIM-3) (human (endogenous in CD3+ T cells from PBMCs)) (UniProt Q8TDQ0)

Chain of Galectin-9 (O00182 whole entry): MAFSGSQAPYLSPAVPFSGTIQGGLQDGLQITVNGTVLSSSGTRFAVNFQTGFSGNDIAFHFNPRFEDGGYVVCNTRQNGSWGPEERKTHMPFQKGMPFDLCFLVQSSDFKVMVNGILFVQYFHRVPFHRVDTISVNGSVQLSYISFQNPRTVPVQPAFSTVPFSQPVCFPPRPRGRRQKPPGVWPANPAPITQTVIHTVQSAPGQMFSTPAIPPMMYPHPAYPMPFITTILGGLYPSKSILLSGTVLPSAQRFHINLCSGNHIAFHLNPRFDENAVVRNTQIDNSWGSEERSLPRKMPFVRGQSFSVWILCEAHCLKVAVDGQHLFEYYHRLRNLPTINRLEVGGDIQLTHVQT

- T cell proliferation (DELFIA, TRF intensity) of activated CD3+ T cells treated with Galectin-9 at 55.6 nM, against activated T cells without Galectin-9: 50%
Substance: Galectin-9 (from UniProt O00182 1-355) (ligand)
